The DeepSol protein solubility set

assay: soluble on expression in E. coli; label from the status in PepcDB or PDB records

Row | Sequence | soluble on expression in E. coli
1 | YIDILNQARDYVYIMTPYLILDSEMEHALQFAAERGVDVKIIMPGIPDKKVPFALAKRYFPALLDAGVKIYEFTPGFVHAKVFIADDIKAVVGTINLDYRSLYHHFECATYMYQTDCLVDIKADFKETLKQSRRVTRSTLQKEKISTKLIGLVVKLVAPLL | not soluble
2 | MVTQTNPVPVTYPTDAYIPTYLPDDKVSNLADLKKLIEMDSRLDLYLTRRRLDTSINLPTNTKTKDHPPNKEMLRIYVYNTTESSPRSDSGTPADSGKTTWTLRIEGKLLHESANGKHPFSEFLEGVAVDFKRLKPLGMGKKRKRDSSLSLPLNLQQPEYNDQDSTMGDNDNGEDEDSAEAESREEIVDALEWNYDENNVVEFDGIDIKRQGKDNLRCSITIQLRGVDGGKVQYSPNLATLIGMQTGSVNDAVYSIYKYILINNLFVTEQTEAQDGSNDAEDSSNENNNKNGAGDDDGVEGSTPKDKPELGEVKLDSLLQKVLDTNAAHLPLMNVVQTVNKLVSPLPPIILDYTIDLSKDTTYGATTLDVDVSHILHQPQPQPNLQKEEETDAEDTAKLREITKLALQLNSSAQKYQFFHELSLHPRETLTHYLWSSKQNELVLQGDQYFNEDAARTSDIYSNNNNDRSLMGNISLLYSQGRL | soluble
3 | MGSDKIHHHHHHMIINKHVMRSTNEKQVLQQVINEGPISRSQISRNLSLNKVTVSDIYNQLLRTQFIKEIGCGVSTKNGGRKPVMAELNVNYGFVASIDMTADAVKLMYSRLNGKILHFQSFKTSDMTLTDVIDLIEDQLRNVDDYGTIHGLMGVAIALDGIIYENKILKTPIKGLTHFDLAKYLRDKLRIPVVLEKKANLTAVFERDFHDNEIFDNVVSVVVRDQIHAGIVADSRLYSGHEGEAGEVGTALLEDRHVEDHLASVNDYASEKALWARLKAIKHVERLDLTTVKHDYINHDPEVTKVFDDFVYYLSKVIANVSTAFAPDVVVLNTTVLEILPQLLTNVRESTAKLTSPSRQVPIIATKNVQSAALLGGASVIIHQALGLESLKMQFS | not soluble
4 | MGSDKIHHHHHHAEAPLRPDQAAFRDLYREMVETDTSITTGSCTLLADRIEARLRGAGFADGQIHRFAVPEFPKEGGIVAILPGTSAKARPILLLGHLDVVVAKREDWTRDPYRLIEEGGYFYGRGVADMKAMDAIWVDMLMRFRKEGRKPRRTIKLALTCGEETSTAFNGAKWLAENRRDLIDAEFALNEGGSGRTDKPLEEGGRVVLQTIHVGEKTPVNYRVEATNPGGHSSMPVRDNAIYELSDALVRLRDYEFPVMLNDTTRAFFAKAGAARGDAMGKAMVAVSADPADKAAVALLDTDRSFHSMLRTTCVATLLDGGHANNALPQRAGANVNCRIFPGVTAEEVRGTLETVVADPRMTVVRTDNRGPDAKAPPLDPKIVGPAEKLVAKYYPGVPMVPMMSTGATDGVFLGAVGIPSYGPPGLFGNPDGNGVHGLNERISVQAVYAGRDLLTELVTAYAF | not soluble
5 | MTHRPAPDDMAELIYTSGTTGNPKGVILTHRNLVANILQVNRHIPVVTPDFSFLSLLPLSHMFEQMGGFFTPLYRGAAIVYIRTLKPSAIMEALGEEDIYAIIAVPRLLQLLKGSVERELEAKGLGSIFRWLLKVGERMSRGGRSVLFRPIQRKFGRNFALFVSGGAPLDPEVFRFWNGLGFRVVEGYGLTECSPVLTANTMERQVMGSVGLEHHHHHH | soluble
6 | MNMIPKVAMFGTGYVGLVSGVCIADFGINVICVDVDKEKIDGLNNGKIPIYEPGLDVFLERNIKAGRIQFTTDAKMAIEESNVLFIAVGTPPKENGEADMQYVYAVAETIGQYMNGYKVIVDKSTVPVGTGQVVKKIIADKLKERGVEYSFDVVSNPEFLREGKALYDFTHPDRVVIGVESEEVAEIMKKVYRPLYINETPFVITNIETAEMIKYASNAFLATKITFINEIANLCEKVGANVQQVAMAMGRDGRIGPKFLHAGPGFGGSCFPKDTKALVQIAEKHGVQMSVVNAVIEANERQKKMVAEKLEKFAGDLKGKTIGILGLAFKPETDDVREAPALTIIADLIERGASIRAYDPQAMEEAKKALRKYADNITYCKHAYDTAESVDALVIVTEWHEFRNMDLTLLKKIMRGNIFYDARNIYSRKDIEEKGFVFIGTGV | not soluble
7 | MGSDKIHHHHHHMSGPQGRLAIIAGSGMLPVYVAEAARAAGEDPFILPLKNEADQRWDGFQSAVIGVGDMAGLSSLIKRHGIKRVVMSGGVKKRPNFKEIHVNLRFLVKLPFAVKTLLSGGDDAVLKMVIQLIESQGCRVVGAHEIAPQLLAELGPLGSSRPTDDDRRDIAAAAKAADALGRLDVGQGAVSVGGRIVALEGVEGTDRMLQRVAELRSEGRISSRRSGVLVKLCKPQQDIRADLPTIGQSTIENAARAGLSGIAVQAGRALLLQRQETLRQADAAGIFISGIELAPEGEAWLS | not soluble
